Measured values from the supplement of paper PMC7877785.
± gives the uncertainty stated by the source.

Assay: self-splicing fitness, log relative to wild type (ln ratio); higher = more splicing; Tetrahymena group I intron in knt gene, E. coli kanamycin selection, DiMSum; sequences stand for … in CUCUCU…GGAGGGAAAAGUUAUCAGGCAUGCACCUGGUAGCUAGUCUUUAAACCAAUAGAUUGCAUCGGUUUAAAAGGCAAGACCGUCAAAUUGCGGGAAAGGGGUCAACAGCCGUUCAGUACCAAGUCUCAGGGGAAACUUUGAGAUGGCCUUGCAAAGGGUAUGGUAAUAAGCUGACGGACAUGGUCCUAACCACGCAGCCAAGUCCUAAGUCAACAGAUCUUCUGUUGAUAUGGAUGCAGUUCACAGACUAAAUGUCGGUCGGGGAAGAUGUAUUCUUCUCAUAAGAUAUAGUCGGACCUCUCCUUAAUGGGAGCUAGCGGAUGAAGUGAUGCAACACUGGAGCCGCUGGGAACUAAUUUGUAUGCGAAAGUAUAUUGAUUAGUUUUGGAGUACUCGUGGUCG
Method in brief: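 Library with all eight P1ex-region intron nucleotides randomised, intron inside the knt kanamycin-resistance gene on pET-22b(+), in E. coli BL21(DE3). Cells grew overnight at 37°C or 30°C on LB agar with or without 25 μg/mL kanamycin (plus 100 μg/mL carbenicillin, 50 μM IPTG, 0.2% rhamnose), in six replicate transformations. Pooled colonies were amplicon-sequenced on Illumina HiSeq 2500. DiMSum fitness is the error-weighted combination of wild-type-normalised replicate fold changes, kanamycin versus none.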

Sequence | self-splicing fitness (ln) (30 °C) | self-splicing fitness (ln) (37 °C)
UCCCAGCAAUAUUACGGAGA | -1.18 ± 0.084 | -0.484 ± 0.11
CUUUAGCAAUAUUACGCUUC |  | -2.32 ± 0.38
UCUCAGCAAUAUUACGCCAG | -1.94 ± 0.25 | -1.2 ± 0.34
UAUCAGCAAUAUUACGGAGG | -1.18 ± 0.13 | -0.979 ± 0.14
GAGUAGCAAUAUUACGAUCA | 0.0664 ± 0.19 | -0.761 ± 0.21
ACCGAGCAAUAUUACGGACG | -2.21 ± 0.15 | 0.0411 ± 0.13
AGGAAGCAAUAUUACGUAAC | -3.65 ± 0.3 | -2.18 ± 0.42
AAAAAGCAAUAUUACGUGUG | -1.57 ± 0.049 | -1.27 ± 0.069
CACAAGCAAUAUUACGAGAC | -3.08 ± 0.17 | -2.51 ± 0.17
CGCGAGCAAUAUUACGUAUU | -3.09 ± 0.43 | -2.6 ± 0.39
GCCUAGCAAUAUUACGAAUU | -2.09 ± 0.12 | -0.976 ± 0.11
AUGGAGCAAUAUUACGUUGG | -4.65 ± 0.39 | -2.35 ± 0.23
CGCCAGCAAUAUUACGUCAC | -3.7 ± 0.24 | -2 ± 0.24
CGGUAGCAAUAUUACGACAG | -0.475 ± 0.15 | 0.021 ± 0.16
CGCAAGCAAUAUUACGGCGA | -1.91 ± 0.24 | -0.653 ± 0.17
CCGCAGCAAUAUUACGAAGG | -3.52 ± 0.18 | -2.98 ± 0.29
CAGGAGCAAUAUUACGAACC |  | -1.07 ± 0.24
GGAUAGCAAUAUUACGAAUG | -2.73 ± 0.18 | -1.87 ± 0.2
UGCGAGCAAUAUUACGGGUU | -3.38 ± 0.16 | -2.51 ± 0.16
CUAAAGCAAUAUUACGCUAU | -4.21 ± 0.31 | -2.75 ± 0.3
GCCUAGCAAUAUUACGGGUU | -2.93 ± 0.12 | -2.02 ± 0.13
AAAGAGCAAUAUUACGAUGC | -2.54 ± 0.2 | -1.96 ± 0.27
AUGAAGCAAUAUUACGACGU | 0.206 ± 0.076 | 0.735 ± 0.088
CCCGAGCAAUAUUACGUUGG | -4.15 ± 0.18 | -2.09 ± 0.14
GCAAAGCAAUAUUACGGACG | -1.4 ± 0.091 | 0.261 ± 0.14

Sequence | self-splicing fitness (ln) (30 °C) | self-splicing fitness (ln) (37 °C)
GGCCAGCAAUAUUACGAGGC | -2.66 ± 0.23 | -2.94 ± 0.4
ACGUAGCAAUAUUACGGAUG | -4.2 ± 0.24 | -2.42 ± 0.21
GUGAAGCAAUAUUACGGCUA | -0.323 ± 0.1 | 0.322 ± 0.12
GGGUAGCAAUAUUACGGCCG | -0.902 ± 0.086 | -0.295 ± 0.15
GGGGAGCAAUAUUACGGGAA |  | -1.38 ± 0.49
AUGUAGCAAUAUUACGAACC | -1 ± 0.18 | -0.513 ± 0.22
AAGCAGCAAUAUUACGGGCG | -0.645 ± 0.065 | -0.638 ± 0.099
AUGGAGCAAUAUUACGUAUA | -1.75 ± 0.45 | -2.02 ± 0.36
AGGAAGCAAUAUUACGGUCC | -1.54 ± 0.23 | -1.05 ± 0.4
CUAUAGCAAUAUUACGCGGA | -1.13 ± 0.49 | 
ACUAAGCAAUAUUACGUCUC | -2.79 ± 0.16 | -0.208 ± 0.14
CGGAAGCAAUAUUACGCUGC | -2.35 ± 0.41 | -1.78 ± 0.2
CAACAGCAAUAUUACGGGCG | -0.0253 ± 0.049 | 0.154 ± 0.062
UUUGAGCAAUAUUACGCAAA | -2.8 ± 0.25 | -2.25 ± 0.21
CGUAAGCAAUAUUACGAUGU |  | -1.57 ± 0.16
CGAAAGCAAUAUUACGAGUU | -3.72 ± 0.44 | -2.21 ± 0.23
CGGAAGCAAUAUUACGAACG | -3 ± 0.21 | -0.802 ± 0.24
ACCAAGCAAUAUUACGAAUU | -3.46 ± 0.17 | -2.13 ± 0.14
UCUUAGCAAUAUUACGAAAU | -3.48 ± 0.33 | -3.09 ± 0.35
GACGAGCAAUAUUACGAAUC |  | -2.14 ± 0.4
GCAAAGCAAUAUUACGUGGU | -3.38 ± 0.15 | -2.59 ± 0.15
GCGCAGCAAUAUUACGAAUG | -1.52 ± 0.13 | -0.961 ± 0.14
AGCAAGCAAUAUUACGCGAG | -3.61 ± 0.16 | -2.87 ± 0.19
CGCAAGCAAUAUUACGUAUU | -3.08 ± 0.21 | -3.5 ± 0.35
